Here are results for 6 proteins from patent publication US6133013A, “Truncated aspartase enzyme derivatives and uses thereof” (The University of Akron, priority 1999, dated 2000).

Substrate in this data set: N[C@@H](CC(=O)O)C(=O)O
Description: Spectrophotometric aspartase assay, deamination of L-aspartic acid to fumarate (240 nm). Type of data set: biochemical, Escherichia coli. Conditions: 30 mM Hepes pH 7.0, 10 mM magnesium acetate, 30° C. As to the method:
Catalytic activity was determined spectrophotometrically by measuring the formation of fumarate at 240 nm (E240 =2.53 mM^-1 cm^-1) produced by the enzyme-catalyzed deamination of aspartic acid. A standard assay mix contained 30 mM Hepes buffer, pH 7.0, 10 mM magnesium acetate, and varying concentrations of L-aspartic acid at 30° C.

B1: E. coli aspartase truncated variant A469stop, residues 1-468 of SEQ ID NO: 1 (Escherichia coli K-12) (protein)
chain: MSNNIRIEEDLLGTREVPADAYYGVHTLRAIENFYISNNKISDIPEFVRGMVMVKKAAAMANKELQTIPKSVANAIIAACDEVLNNGKCMDQFPVDVYQGGAGTSVNMNTNEVLANIGLELMGHQKGEYQYLNPNDHVNKCQSTNDAYPTGFRIAVYSSLIKLVDAINQLREGFERKAVEFQDILKMGRTQLQDAVPMTLGQEFRAFSILLKEEVKNIQRTAELLLEVNLGATAIGTGLNTPKEYSPLAVKKLAEVTGFPCVPAEDLIEATSDCGAYVMVHGALKRLAVKMSKICNDLRLLSSGPRAGLNEINLPELQAGSSIMPAKVNPVVPEVVNQVCFKVIGNDTTVTMAAEAGQLQLNVMEPVIGQAMFESVHILTNACYNLLEKCINGITANKEVCEGYVYNSIGIVTYLNPFIGHHNGDIVGKICAETGKSVREVVLERGLLTEAELDDIFSVQNLMHPAYK
notes: made in house; host or cells: E. coli overproducing strain
With B1, where the note is “other: A469stop”, the Km came to 10.2 mM, the kcat amounted to 0.66 ± 0.0167 s⁻¹ and the kcat/Km was found to be 65 M⁻¹ s⁻¹.

B2: E. coli aspartase truncated variant Y472stop, residues 1-471 of SEQ ID NO: 1 (Escherichia coli K-12) (protein)
chain: MSNNIRIEEDLLGTREVPADAYYGVHTLRAIENFYISNNKISDIPEFVRGMVMVKKAAAMANKELQTIPKSVANAIIAACDEVLNNGKCMDQFPVDVYQGGAGTSVNMNTNEVLANIGLELMGHQKGEYQYLNPNDHVNKCQSTNDAYPTGFRIAVYSSLIKLVDAINQLREGFERKAVEFQDILKMGRTQLQDAVPMTLGQEFRAFSILLKEEVKNIQRTAELLLEVNLGATAIGTGLNTPKEYSPLAVKKLAEVTGFPCVPAEDLIEATSDCGAYVMVHGALKRLAVKMSKICNDLRLLSSGPRAGLNEINLPELQAGSSIMPAKVNPVVPEVVNQVCFKVIGNDTTVTMAAEAGQLQLNVMEPVIGQAMFESVHILTNACYNLLEKCINGITANKEVCEGYVYNSIGIVTYLNPFIGHHNGDIVGKICAETGKSVREVVLERGLLTEAELDDIFSVQNLMHPAYKAKR
notes: as for B1
In the case of B2, under “other: Y472stop”, the Km came to 3.3 mM, the kcat was 1.62 ± 0.102 s⁻¹ and the kcat/Km worked out at 492 M⁻¹ s⁻¹.

B3: E. coli aspartase truncated variant D474stop, residues 1-473 of SEQ ID NO: 1 (Escherichia coli K-12) (protein)
chain: MSNNIRIEEDLLGTREVPADAYYGVHTLRAIENFYISNNKISDIPEFVRGMVMVKKAAAMANKELQTIPKSVANAIIAACDEVLNNGKCMDQFPVDVYQGGAGTSVNMNTNEVLANIGLELMGHQKGEYQYLNPNDHVNKCQSTNDAYPTGFRIAVYSSLIKLVDAINQLREGFERKAVEFQDILKMGRTQLQDAVPMTLGQEFRAFSILLKEEVKNIQRTAELLLEVNLGATAIGTGLNTPKEYSPLAVKKLAEVTGFPCVPAEDLIEATSDCGAYVMVHGALKRLAVKMSKICNDLRLLSSGPRAGLNEINLPELQAGSSIMPAKVNPVVPEVVNQVCFKVIGNDTTVTMAAEAGQLQLNVMEPVIGQAMFESVHILTNACYNLLEKCINGITANKEVCEGYVYNSIGIVTYLNPFIGHHNGDIVGKICAETGKSVREVVLERGLLTEAELDDIFSVQNLMHPAYKAKRYT
notes: as for B1
Regarding B3, for the setting “other: D474stop”, the Km was determined as 2.8 mM, the kcat amounted to 0.712 ± 0.127 s⁻¹ and the kcat/Km is 255 M⁻¹ s⁻¹.

B4: E. coli aspartase truncated variant R471stop, residues 1-470 of SEQ ID NO: 1 (Escherichia coli K-12) (protein)
chain: MSNNIRIEEDLLGTREVPADAYYGVHTLRAIENFYISNNKISDIPEFVRGMVMVKKAAAMANKELQTIPKSVANAIIAACDEVLNNGKCMDQFPVDVYQGGAGTSVNMNTNEVLANIGLELMGHQKGEYQYLNPNDHVNKCQSTNDAYPTGFRIAVYSSLIKLVDAINQLREGFERKAVEFQDILKMGRTQLQDAVPMTLGQEFRAFSILLKEEVKNIQRTAELLLEVNLGATAIGTGLNTPKEYSPLAVKKLAEVTGFPCVPAEDLIEATSDCGAYVMVHGALKRLAVKMSKICNDLRLLSSGPRAGLNEINLPELQAGSSIMPAKVNPVVPEVVNQVCFKVIGNDTTVTMAAEAGQLQLNVMEPVIGQAMFESVHILTNACYNLLEKCINGITANKEVCEGYVYNSIGIVTYLNPFIGHHNGDIVGKICAETGKSVREVVLERGLLTEAELDDIFSVQNLMHPAYKAK
notes: as for B1
As for B4, for the setting “other: R471stop”, the Km amounted to 4.5 mM, the kcat amounted to 1.18 ± 0.0483 s⁻¹ and the kcat/Km was found to be 262 M⁻¹ s⁻¹.

B5: E. coli aspartase (L-aspartate ammonia-lyase, E.C. 4.3.1.1), wild-type, SEQ ID NO: 1 (Escherichia coli K-12) (protein)
chain: MSNNIRIEEDLLGTREVPADAYYGVHTLRAIENFYISNNKISDIPEFVRGMVMVKKAAAMANKELQTIPKSVANAIIAACDEVLNNGKCMDQFPVDVYQGGAGTSVNMNTNEVLANIGLELMGHQKGEYQYLNPNDHVNKCQSTNDAYPTGFRIAVYSSLIKLVDAINQLREGFERKAVEFQDILKMGRTQLQDAVPMTLGQEFRAFSILLKEEVKNIQRTAELLLEVNLGATAIGTGLNTPKEYSPLAVKKLAEVTGFPCVPAEDLIEATSDCGAYVMVHGALKRLAVKMSKICNDLRLLSSGPRAGLNEINLPELQAGSSIMPAKVNPVVPEVVNQVCFKVIGNDTTVTMAAEAGQLQLNVMEPVIGQAMFESVHILTNACYNLLEKCINGITANKEVCEGYVYNSIGIVTYLNPFIGHHNGDIVGKICAETGKSVREVVLERGLLTEAELDDIFSVQNLMHPAYKAKRYTDESEQ
notes: made in house; host or cells: E. coli overproducing strain (aspA in pTZ18R)
Take B5: the Km (other: wild-type) is 1.8 mM.

B6: E. coli aspartase truncated variant Y467stop (stop codon at position 467) (Escherichia coli K-12; E32V) (protein)
chain: MSNNIRIEEDLLGTREVPADAYYGVHTLRAIVNFYISNNKISDIPEFVRGMVMVKKAAAMANKELQTIPKSVANAIIAACDEVLNNGKCMDQFPVDVYQGGAGTSVNMNTNEVLANIGLELMGHQKGEYQYLNPNDHVNKCQSTNDAYPTGFRIAVYSSLIKLVDAINQLREGFERKAVEFQDILKMGRTQLQDAVPMTLGQEFRAFSILLKEEVKNIQRTAELLLEVNLGATAIGTGLNTPKEYSPLAVKKLAEVTGFPCVPAEDLIEATSDCGAYVMVHGALKRLAVKMSKICNDLRLLSSGPRAGLNEINLPELQAGSSIMPAKVNPVVPEVVNQVCFKVIGNDTTVTMAAEAGQLQLNVMEPVIGQAMFESVHILTNACYNLLEKCINGITANKEVCEGYVYNSIGIVTYLNPFIGHHNGDIVGKICAETGKSVREVVLERGLLTEAELDDIFSVQNLMHPA
notes: made in house; host or cells: E. coli (aspA in pTZ18R)
As for B6, under “other: Y467stop”, the Km came out at 31 mM, the kcat came to 0.0417 ± 0.013 s⁻¹ and the kcat/Km was found to be 1.33 M⁻¹ s⁻¹.
